Measured values from publication PMC6667474 (Scientific Reports, 2019).

Target: T1, Myc-IQGAP3 (human, UniProt Q86VI3 2-1631)
T1 construct: human IQGAP3 from a commercial cDNA (Dharmacon); full length IQGAP3 (corresponding to amino acids 2-1631) in pcDNA3; also called overexpressed IQGAP3; IQ3; source: HEK293, transfected, in lysate
Assay: co-IP; HEK293 cells transfected with Myc-IQGAP3 alone or with Myc-Cdc42 (wt, Q61L or T17N); anti-IQGAP3 rabbit polyclonal antibody and Protein A-Sepharose 4 h at 4 C; lysis buffer 150 mM NaCl, 1% Triton X-100, 200 mM Tris-HCl pH 7.4; Western blot
Conditions: partners not purified

T1 sequence (Q86VI3 2-1631): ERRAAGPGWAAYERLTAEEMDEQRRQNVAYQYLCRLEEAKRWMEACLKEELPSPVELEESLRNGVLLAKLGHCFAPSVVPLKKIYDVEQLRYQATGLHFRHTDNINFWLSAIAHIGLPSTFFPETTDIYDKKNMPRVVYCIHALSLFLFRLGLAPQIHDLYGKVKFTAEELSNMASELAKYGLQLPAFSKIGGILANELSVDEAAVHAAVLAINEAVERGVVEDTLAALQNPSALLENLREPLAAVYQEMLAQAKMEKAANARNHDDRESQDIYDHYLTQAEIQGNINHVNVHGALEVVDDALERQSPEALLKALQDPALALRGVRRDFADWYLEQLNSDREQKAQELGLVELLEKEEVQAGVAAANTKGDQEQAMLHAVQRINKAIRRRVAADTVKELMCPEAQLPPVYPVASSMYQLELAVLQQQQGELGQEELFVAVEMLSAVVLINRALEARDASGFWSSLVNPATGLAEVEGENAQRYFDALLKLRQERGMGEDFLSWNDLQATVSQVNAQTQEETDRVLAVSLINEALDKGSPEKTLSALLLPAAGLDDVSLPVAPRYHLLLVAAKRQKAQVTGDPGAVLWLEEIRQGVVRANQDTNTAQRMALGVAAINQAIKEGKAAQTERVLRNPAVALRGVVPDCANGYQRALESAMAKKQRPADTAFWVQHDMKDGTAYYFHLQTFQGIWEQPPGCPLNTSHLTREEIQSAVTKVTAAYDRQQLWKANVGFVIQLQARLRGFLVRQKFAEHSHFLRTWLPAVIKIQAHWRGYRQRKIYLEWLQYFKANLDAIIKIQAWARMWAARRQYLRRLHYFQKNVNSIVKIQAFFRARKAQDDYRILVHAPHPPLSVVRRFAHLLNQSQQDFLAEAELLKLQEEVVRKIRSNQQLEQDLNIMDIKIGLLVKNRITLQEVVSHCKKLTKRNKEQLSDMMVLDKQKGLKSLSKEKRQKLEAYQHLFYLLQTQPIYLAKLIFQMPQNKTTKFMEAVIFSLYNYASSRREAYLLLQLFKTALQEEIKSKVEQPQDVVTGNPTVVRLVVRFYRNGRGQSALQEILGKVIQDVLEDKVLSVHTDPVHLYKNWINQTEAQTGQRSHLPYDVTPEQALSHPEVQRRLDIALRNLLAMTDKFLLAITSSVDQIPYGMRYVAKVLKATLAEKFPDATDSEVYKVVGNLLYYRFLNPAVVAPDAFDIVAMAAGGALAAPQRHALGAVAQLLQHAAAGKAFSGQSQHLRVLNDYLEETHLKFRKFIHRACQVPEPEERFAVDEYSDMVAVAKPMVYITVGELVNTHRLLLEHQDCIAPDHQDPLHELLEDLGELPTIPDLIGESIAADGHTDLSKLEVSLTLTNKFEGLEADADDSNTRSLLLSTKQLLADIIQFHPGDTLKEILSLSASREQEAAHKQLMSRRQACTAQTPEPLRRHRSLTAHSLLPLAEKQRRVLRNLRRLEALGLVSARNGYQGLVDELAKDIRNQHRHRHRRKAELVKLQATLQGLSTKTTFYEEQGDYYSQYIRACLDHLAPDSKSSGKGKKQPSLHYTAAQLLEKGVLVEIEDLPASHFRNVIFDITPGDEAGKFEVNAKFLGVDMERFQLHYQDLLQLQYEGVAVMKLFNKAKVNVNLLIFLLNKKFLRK

fold amount co-immunoprecipitated against wild type Cdc42: 1.7 fold
B1: Myc-Cdc42 constitutively active (Q61L) (natural protein)
chain: not shown
notes: Cdc42 Q61L cut from pGEX-2T-Cdc42-Q61L and inserted into pcDNA3; also called Myc-Cdc42-Q61L; Cdc42 Q61L; source: HEK293, transfected, in lysate
